# In US20230140797A1 (published 2023):
# Substitutions are numbered along the chain they refer to.
# T1: human FcγRIIb extracellular domain with C-terminal His tag (human, UniProt P31994 43-217)
# T1 sequence (looked up): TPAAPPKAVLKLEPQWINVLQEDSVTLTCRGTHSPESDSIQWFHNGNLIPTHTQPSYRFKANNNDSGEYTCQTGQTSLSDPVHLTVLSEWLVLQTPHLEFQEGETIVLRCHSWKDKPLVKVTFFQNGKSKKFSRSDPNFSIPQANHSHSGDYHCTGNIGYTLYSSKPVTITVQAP
# T2: human FcγRIIa type R (131Arg) extracellular domain with C-terminal His tag (human, UniProt P12318 34-217)
# T2 sequence (looked up): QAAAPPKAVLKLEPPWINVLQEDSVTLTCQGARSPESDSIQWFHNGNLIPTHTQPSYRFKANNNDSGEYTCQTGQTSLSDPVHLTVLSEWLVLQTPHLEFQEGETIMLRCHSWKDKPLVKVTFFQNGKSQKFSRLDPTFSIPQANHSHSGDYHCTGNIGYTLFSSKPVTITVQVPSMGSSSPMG
# T3: human FcγRIIb extracellular domain with C-terminal His tag (human, UniProt P31994 43-217)
# T3 sequence (looked up): T1 sequence (looked up)
# T4: human FcγRIIb extracellular domain with C-terminal His tag (human, UniProt P31994 43-217)
# T4 sequence (looked up): T1 sequence (looked up)
# B1: IL6R-BP911/IL6R-L (antibody, human IgG1, kappa)
# heavy: QVQLQESGPGLVKPSETLSLTCAVSGHSISHDHAWSWVRQPPGEGLEWIGFISYSGITNYNPSLQGRVTISRDNSKNTLYLQMNSLRAEDTAVYYCARSLARTTAMDYWGEGTLVTVSSASTKGPSVFPLAPSSKSTSGGTAALGCLVKDYFPEPVTVSWNSGALTSGVHTFPAVLQSSGLYSLSSVVTVPSSSLGTQTYICNVNHKPSNTKVDKKVEPKSCDKTHTCPPCPAPELLGGDSVFLFPPKPKDTLMISRTPEVTCVVVDVSHEDPEVKFNWYVDGVEVHNAKTKPREEQYNSTYRVVSVLTVLHQDWLNGKEYKCKVSNKALPKPIEKTISKAKGQPREPQVYTLPPSRDELTKNQVSLTCLVKGFYPSDIAVEWESNGQPENNYKTTPPVLDSDGSFFLYSKLTVDKSRWQQGNVFSCSVMHEALHNHYTQESLSLSP
# light: not shown
# B2: IL6R-BP102/IL6R-L (antibody, human IgG1, kappa)
# heavy: B1 heavy with S269Q, K332A
# light: not shown
# B3: IL6R-BP078/IL6R-L (antibody, human IgG1, kappa)
# heavy: B1 heavy with K332M
# light: not shown
# B4: IL6R-2B172/IL6R-L (antibody, human IgG1, kappa)
# heavy: B1 heavy with V325M, K332A
# light: not shown
# B5: IL6R-BP142/IL6R-L (antibody, human IgG1, kappa)
# heavy: B1 heavy with K328N, K332A
# light: not shown
# B6: IL6R-2B169/IL6R-L (antibody, human IgG1, kappa)
# heavy: B1 heavy with V325I, K332A
# light: not shown
# B7: IL6R-BP106/IL6R-L (antibody, human IgG1, kappa)
# heavy: B1 heavy with H270D, K332A
# light: not shown
# B8: IL6R-BP126/IL6R-L (antibody, human IgG1, kappa)
# heavy: B1 heavy with K328L, K332A
# light: not shown
# B9: IL6R-BP100/IL6R-L (antibody, human IgG1, kappa)
# heavy: B1 heavy with S269A, K332A
# light: not shown
# B10: IL6R-BP121/IL6R-L (antibody, human IgG1, kappa)
# heavy: B1 heavy with K328Q, K332A
# light: not shown
# B11: IL6R-BP110/IL6R-L (antibody, human IgG1, kappa)
# heavy: B1 heavy with H270N, K332A
# light: not shown
# B12: IL6R-BP103/IL6R-L (antibody, human IgG1, kappa)
# heavy: B1 heavy with S269V, K332A
# light: not shown
# B13: IL6R-BP118/IL6R-L (antibody, human IgG1, kappa)
# heavy: B1 heavy with K328S, K332A
# light: not shown
# B14: IL6R-BP116/IL6R-L (antibody, human IgG1, kappa)
# heavy: B1 heavy with K328T, K332A
# light: not shown
# B15: IL6R-2B002/IL6R-L (antibody, human IgG1, kappa)
# heavy: B1 heavy with E235D, K332A
# light: not shown
# B16: IL6R-BP112/IL6R-L (antibody, human IgG1, kappa)
# heavy: B1 heavy with P273G, K332A
# light: not shown
# B17: IL6R-BP136/IL6R-L (antibody, human IgG1, kappa)
# heavy: B1 heavy with K328A, K332A
# light: not shown
# B18: IL6R-2B128/IL6R-L (antibody, human IgG1, kappa)
# heavy: B1 heavy with Y298D, K332A
# light: not shown
# B19: IL6R-BP912/IL6R-L (antibody, human IgG1, kappa)
# heavy: B1 heavy with K332R
# light: not shown
# B20: IL6R-BP117/IL6R-L (antibody, human IgG1, kappa)
# heavy: B1 heavy with K328D, K332A
# light: not shown
# B21: IL6R-BP265/IL6R-L (antibody, human IgG1, kappa)
# heavy: B1 heavy with G239D, H270E, P273G, Y298D, K332R
# light: not shown
# B22: IL6R-BP435/IL6R-L (antibody, human IgG1, kappa)
# heavy: B1 heavy with E235D, G239D, H270D, P273G, Y298D, K328A, K332R, I334T
# light: not shown
# B23: IL6R-BP268/IL6R-L (antibody, human IgG1, kappa)
# heavy: B1 heavy with E235D, G239D, H270E, P273G, Y298D, K332A
# light: not shown
# B24: IL6R-BP494/IL6R-L (antibody, human IgG1, kappa)
# heavy: B1 heavy with G239D, S269A, H270E, P273G, Y298D, K332R
# light: not shown
# B25: IL6R-BP489/IL6R-L (antibody, human IgG1, kappa)
# heavy: B1 heavy with E235D, G239D, V266I, S269A, H270E, P273G, Y298D, K332R, P398M
# light: not shown
# B26: IL6R-BP499/IL6R-L (antibody, human IgG1, kappa)
# heavy: B1 heavy with E235D, G239D, V266I, S269A, H270E, P273G, Y298D, K332R, P398L
# light: not shown
# B27: IL6R-BP567/IL6R-L (antibody, human IgG1, kappa)
# heavy: B1 heavy with E235D, V266I, S269A, H270E, P273G, Y298D, K332A
# light: not shown
# B28: IL6R-BP551/IL6R-L (antibody, human IgG1, kappa)
# heavy: B1 heavy with G239D, V266I, H270E, P273G, E274D, Y298D, K332R
# light: not shown
# B29: IL6R-BP533/IL6R-L (antibody, human IgG1, kappa)
# heavy: B1 heavy with E235D, G239D, V266I, S269G, H270E, P273G, Y298D, K332R, P398L
# light: not shown
# B30: IL6R-BP539/IL6R-L (antibody, human IgG1, kappa)
# heavy: B1 heavy with G239D, V266I, S269G, H270E, P273G, E274P, Y298D, K332R
# light: not shown
# B31: IL6R-BP511/IL6R-L (antibody, human IgG1, kappa)
# heavy: B1 heavy with G239D, V266I, S269A, H270E, P273G, E274P, Y298D, K332R
# light: not shown
# B32: BP562 (antibody, human IgG1, kappa)
# heavy: B1 heavy with G239D, H270D, P273G, E274D, Y298D, K332R
# light: not shown
# B33: BP560 (antibody, human IgG1, kappa)
# heavy: B1 heavy with S269G, H270E, P273G, Y298D, K332R
# light: not shown
# B34: BP563 (antibody, human IgG1, kappa)
# heavy: B1 heavy with E235D, G239D, H270E, P273G, E274D, Y298D, K332R
# light: not shown
# B35: BP504 (antibody, human IgG1, kappa)
# heavy: B1 heavy with E235D, G239D, V266I, S269A, H270E, P273G, E274P, K332A
# light: not shown
# B36: IL6R-BP503/IL6R-L (antibody, human IgG1, kappa)
# heavy: B1 heavy with E235D, G239D, V266I, S269A, H270E, P273G, Y298D, A329G, K332R, P398M
# light: not shown
# B37: BP509 (antibody, human IgG1, kappa)
# heavy: B1 heavy with E235D, G239D, V266I, S269A, H270E, P273G, E274D, Y298D, K332A
# light: not shown
# B38: BP508 (antibody, human IgG1, kappa)
# heavy: B1 heavy with E235D, G239D, V266I, S269A, H270E, P273G, E274P, Y298D, K332A
# light: not shown
# B39: IL6R-BP536/IL6R-L (antibody, human IgG1, kappa)
# heavy: B1 heavy with E235D, G239D, V266I, H270E, P273G, Y298D, A329G, K332R, P398M
# light: not shown
# B40: IL6R-BP565/IL6R-L (antibody, human IgG1, kappa)
# heavy: B1 heavy with E235D, G239D, S269A, H270E, P273G, Y298D, K332R
# light: not shown
# B41: IL6R-BP502/IL6R-L (antibody, human IgG1, kappa)
# heavy: B1 heavy with E235D, G239D, V266I, S269A, H270E, P273G, Y298D, A329G, K332R
# light: not shown
# B42: IL6R-BP550/IL6R-L (antibody, human IgG1, kappa)
# heavy: B1 heavy with G239D, V266I, S269G, H270E, P273G, E274D, Y298D, K332R
# light: not shown
# B43: IL6R-BP500/IL6R-L (antibody, human IgG1, kappa)
# heavy: B1 heavy with G239D, V266I, S269A, H270E, P273G, Y298D, K332A
# light: not shown
# B44: IL6R-BP568/IL6R-L (antibody, human IgG1, kappa)
# heavy: B1 heavy with E235D, V266I, S269A, H270E, P273G, K332A
# light: not shown
# Biological target: T1, human FcγRIIb extracellular domain with …
# Test: SPR Biacore, ratio of KDs
row,Binder,KD (IIb) of the parent polypeptide/KD (IIb) of the altered polypeptide
1,B1,3.5 fold (parent IL6R-B3/IL6R-L)
2,B2,3.4 fold (parent IL6R-B3/IL6R-L)
3,B3,2.8 fold (parent IL6R-B3/IL6R-L)
4,B4,4 fold (parent IL6R-B3/IL6R-L)
5,B5,2.6 fold (parent IL6R-B3/IL6R-L)
6,B6,2.6 fold (parent IL6R-B3/IL6R-L)
7,B7,3.3 fold (parent IL6R-B3/IL6R-L)
8,B8,2.2 fold (parent IL6R-B3/IL6R-L)
9,B9,2.9 fold (parent IL6R-B3/IL6R-L)
10,B10,2.8 fold (parent IL6R-B3/IL6R-L)
11,B11,2.1 fold (parent IL6R-B3/IL6R-L)
12,B12,2.5 fold (parent IL6R-B3/IL6R-L)
13,B13,2.7 fold (parent IL6R-B3/IL6R-L)
14,B14,2.8 fold (parent IL6R-B3/IL6R-L)
15,B15,3.3 fold (parent IL6R-B3/IL6R-L)
16,B16,9.7 fold (parent IL6R-B3/IL6R-L)
17,B17,3.9 fold (parent IL6R-B3/IL6R-L)
18,B18,2.1 fold (parent IL6R-B3/IL6R-L)
19,B19,2.1 fold (parent IL6R-B3/IL6R-L)
20,B20,3.9 fold (parent IL6R-B3/IL6R-L)

# Biological target: T2, human FcγRIIa type R (131Arg) …
# Test: SPR
row,Binder,Kd
1,B21,830 nM
2,B22,120 nM
3,B23,1300 nM

# Biological target: T3, human FcγRIIb extracellular domain with …
# Test: ratio of SPR KDs
row,Binder,KD (IIaR)/KD (IIb)
1,B24,38.6
2,B25,42.3
3,B26,38.3

# Biological target: T4, human FcγRIIb extracellular domain with …
# Test: SPR
row,Binder,KD (IIaH)/KD (IIb)
1,B27,1230
2,B28,436
3,B29,684
4,B30,667
5,B31,1240
6,B32,466
7,B33,168
8,B34,525
9,B35,658
10,B36,503
11,B37,444
12,B38,962
13,B39,438
14,B40,856
15,B41,352
16,B42,655
17,B43,1030
18,B44,748

# Biological target: T4, human FcγRIIb extracellular domain with …
# Test: SPR
# Remark: another data set of the same source
row,Binder,KD (IIaR)/KD (IIb)
1,B27,64.4
2,B28,38.1
3,B29,28.3
4,B30,38
5,B31,50.6
6,B32,20
7,B33,22.8
8,B34,29.1
9,B35,18.5
10,B36,33.2
11,B37,29.2
12,B38,26
13,B39,26.6
14,B40,41.5
15,B41,28.5
16,B42,44.2
17,B43,28.9
18,B44,46.1
